Laboratory results from article PMC6211762.

Target: Macrobrachium rosenbergii nodavirus (MrNV) capsid protein, recombinant, assembled into virus-like particles (Macrobrachium rosenbergii nodavirus)
Experiment: cryo-EM structure; MrNV VLPs at approximately 0.2 mg/ml, vitrified on thin continuous carbon films; Titan Krios; icosahedral reconstruction at 3.3 Å from 40,883 particles; atomic model of the asymmetric unit

Macrobrachium rosenbergii nodavirus (MrNV) capsid protein, recombinant, assembled into virus-like particles (natural protein)
stoichiometry N: 180
